Source: article PMC4700666, “The structure of a prophenoloxidase (PPO) from Anopheles gambiae provides new insights into the mechanism of PPO activation” (BMC Biology, 2016)

Biological target: the molecule itself
Experiment: SEC; size exclusion chromatography of purified AgPPO8 against standard proteins; eluted at a similar retention volume as bovine γ-globulin

B1: Anopheles gambiae prophenoloxidase 8 (AgPPO8) (enzyme, UniProt Q8MZM3 1-700, looked up)
chain: MATLTQKFHGLLQHPLEPLFLPKNDGTLFYDLPERFLTSRYSPIGQNLANRFGPNSPASSQVSNDTGVPPTVVTIKDLDELPDLTFATWIKRRDSFSLFNPEHRKAAGKLTKLFLDQPNADRLVDVAAYARDRLNAPLFQYALSVALLHRPDTKSVSVPSLLHLFPDQFIDPAAQVRMMEEGSIVLDENRMPIPIPMNYTATDAEPEQRMAFFREDIGVNLHHWHWHLVYPASGPPDVVRKDRRGELFYYMHQQLLARYQIDRYAQGLGRIEPLANLREPVREAYYPKLLRTSNNRTFCPRYPGMTISDVARSADRLEVRIADIESWLPRVLEAIDAGFAVSDDGVRVPLDETRGIDVLGNILERSAISINRNLYGDVHNMGHVLLAFIHDPRGTYLESSGVMGGVATAMRDPIFYRWHKFIDNIFLRNKARLAPYTMAELSNSNVTLEALETQLDRAGGAVNSFVTFWQRSQVDLRAGIDFSAAGSAFVSFTHLQCAPFVYRLRINSTARSNRQDTVRIFLLPRQNEQGRPLSFEDRRLLAIELDSFRVNLRPGMNNIVRQSSNSSVTIPFERTFGNVEQANAGNAQSRFCGCGWPAHMLLPKGNANGVEFDLFAMVSRFEDDNANVNYDENAGCDDSYAFCGLRDRVYPSRRAMGFPFDRRASNGVRSVADFVAPYKNMRLATVTLRFMNTIIDRPTN
notes: Prophenoloxidase 8 (PPO8) of Anopheles gambiae, zymogen; cDNA amplified from a cDNA pool of second instar larvae; each subunit in the crystal comprises 700 residues (numbered 1-700; pro-region 17-81, domain I 1-16 and 82-196, domain II 197-435, domain III 436-697); Expressed as a SUMO fusion with an N-terminal 6xHis tag; also called A. gambiae PPO8; source: E. coli BL21 gold (DE3), purified …
- stoichiometry N: 2
